T1: Gas6, recombinant human, His-tagged (human, UniProt Q14393 31-678)
T1 construct: human GAS6, recombinant, bought from R&D Systems; Limits and the end of the tag are in the vendor's data sheet; also called H6-tagged-GAS6; source: bought: R&D Systems (885-GSB-050)
T1 sequence (looked up): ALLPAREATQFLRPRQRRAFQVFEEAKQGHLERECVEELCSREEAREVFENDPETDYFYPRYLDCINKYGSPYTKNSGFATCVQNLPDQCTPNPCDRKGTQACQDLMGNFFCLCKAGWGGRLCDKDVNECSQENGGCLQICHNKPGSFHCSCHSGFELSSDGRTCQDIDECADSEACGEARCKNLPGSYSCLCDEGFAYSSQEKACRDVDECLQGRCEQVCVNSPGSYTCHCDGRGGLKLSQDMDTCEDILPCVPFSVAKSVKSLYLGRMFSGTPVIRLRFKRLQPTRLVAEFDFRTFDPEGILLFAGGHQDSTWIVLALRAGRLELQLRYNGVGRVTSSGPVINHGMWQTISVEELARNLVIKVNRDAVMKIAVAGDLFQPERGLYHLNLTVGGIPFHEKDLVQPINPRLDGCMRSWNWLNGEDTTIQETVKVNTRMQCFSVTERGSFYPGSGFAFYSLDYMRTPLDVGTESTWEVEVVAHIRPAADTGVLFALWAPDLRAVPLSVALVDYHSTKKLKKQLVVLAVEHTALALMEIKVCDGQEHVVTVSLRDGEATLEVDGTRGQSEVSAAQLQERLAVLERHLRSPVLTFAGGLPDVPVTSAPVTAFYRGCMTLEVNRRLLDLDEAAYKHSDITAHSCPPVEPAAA

T2: Fc-Mer (MERTK Fc chimera) (human, UniProt Q12866 21-505)
T2 chain: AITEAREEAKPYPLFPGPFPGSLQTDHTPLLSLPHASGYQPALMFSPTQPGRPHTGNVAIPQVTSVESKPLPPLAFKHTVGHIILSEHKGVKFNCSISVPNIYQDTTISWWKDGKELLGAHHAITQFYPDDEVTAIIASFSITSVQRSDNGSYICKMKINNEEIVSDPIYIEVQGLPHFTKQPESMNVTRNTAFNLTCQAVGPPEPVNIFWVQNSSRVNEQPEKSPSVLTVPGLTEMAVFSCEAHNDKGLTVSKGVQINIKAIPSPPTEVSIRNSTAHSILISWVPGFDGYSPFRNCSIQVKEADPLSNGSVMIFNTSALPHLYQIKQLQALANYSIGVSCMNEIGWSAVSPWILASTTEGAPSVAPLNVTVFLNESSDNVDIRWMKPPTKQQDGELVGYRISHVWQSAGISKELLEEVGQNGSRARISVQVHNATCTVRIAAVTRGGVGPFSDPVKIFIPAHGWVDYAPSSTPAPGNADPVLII

B1: Fc-Mer (MERTK Fc chimera) (Fc fusion, human, UniProt Q12866 21-505, looked up)
chain: T2 chain
notes: human MERTK (Mer) part of the bought Fc chimera; Captured on Protein A by its Fc; As far as I recall the vendor's product is the extracellular domain of human Mer fused to human IgG1 Fc at the C-terminus; limits are in the vendor's data sheet; source: bought: R&D Systems (891-MR-100)
B2: Gas6, recombinant human, His-tagged (ligand)
chain: T1 sequence (looked up)

Assays:
[1] = molecular target: T1, Gas6, recombinant human, His-tagged; assay: SPR; Biacore T200, CM5 chip; Protein A amine-coupled (2300 RU), Fc-Mer (150 RU) or Fc-Axl (140 RU) captured; Gas6 or PGRN injected at 20 uL/min for 500 s, 1000 s dissociation; HBS-EP+ with 1.5 mM CaCl2 and 0.1% BSA; 1:1 kinetic model; settings: both partners purified
[2] = molecular target: T2, Fc-Mer (MERTK Fc chimera); assay: SPR

Row | Binder | Kd [1] | koff [2]
1 | B1 | 27.7 nM | –
2 | B2 | – | 0.000888 s⁻¹

— PMC12218935, “Opposing role of phagocytic receptors MERTK and AXL in Progranulin deficient FTD” (Communications Biology, 2025)
